# Laboratory results published in CN105713087A (BEIJING HEALTH GUARDS BIOTECHNOLOGY CO LTD, dated 2016).
# T1: HPV-18 L1 VLP (human papillomavirus type 18, UniProt P06794 62-568)
# T1 construct: also called HPV18VLP
# T1 sequence: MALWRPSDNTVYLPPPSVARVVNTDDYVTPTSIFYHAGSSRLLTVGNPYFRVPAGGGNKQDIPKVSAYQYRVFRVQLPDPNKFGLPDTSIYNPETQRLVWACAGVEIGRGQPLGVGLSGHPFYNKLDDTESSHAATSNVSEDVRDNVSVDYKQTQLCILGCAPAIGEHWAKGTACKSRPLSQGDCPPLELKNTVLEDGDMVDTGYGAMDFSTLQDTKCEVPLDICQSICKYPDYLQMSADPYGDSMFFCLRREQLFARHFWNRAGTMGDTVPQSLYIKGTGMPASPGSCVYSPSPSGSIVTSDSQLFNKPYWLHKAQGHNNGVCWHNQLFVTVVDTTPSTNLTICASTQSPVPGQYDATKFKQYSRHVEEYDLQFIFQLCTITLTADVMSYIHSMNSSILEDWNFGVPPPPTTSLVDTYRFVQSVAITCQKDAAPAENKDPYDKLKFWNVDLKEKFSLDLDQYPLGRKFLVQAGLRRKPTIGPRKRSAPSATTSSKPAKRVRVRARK
# T2: HPV-16 L1 VLP (human papillomavirus type 16, UniProt P03101 1-505)
# T2 construct: also called HPV16VLP
# T2 sequence: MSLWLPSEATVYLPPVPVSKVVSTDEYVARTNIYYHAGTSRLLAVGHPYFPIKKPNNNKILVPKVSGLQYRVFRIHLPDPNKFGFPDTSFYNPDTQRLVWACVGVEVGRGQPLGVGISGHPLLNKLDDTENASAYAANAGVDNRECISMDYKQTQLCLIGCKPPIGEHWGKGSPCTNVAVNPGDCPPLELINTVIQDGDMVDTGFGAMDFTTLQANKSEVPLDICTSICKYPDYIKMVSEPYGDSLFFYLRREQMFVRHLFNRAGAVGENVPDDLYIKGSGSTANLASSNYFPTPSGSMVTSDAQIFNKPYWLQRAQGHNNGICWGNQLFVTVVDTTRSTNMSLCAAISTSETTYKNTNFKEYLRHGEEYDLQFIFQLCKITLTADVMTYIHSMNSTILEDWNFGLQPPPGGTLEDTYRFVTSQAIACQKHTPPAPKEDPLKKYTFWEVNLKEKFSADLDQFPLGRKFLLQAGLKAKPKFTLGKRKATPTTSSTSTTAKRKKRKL
# T3: HPV31 VLP (human papillomavirus type 31, UniProt P17388 1-504)
# T3 sequence: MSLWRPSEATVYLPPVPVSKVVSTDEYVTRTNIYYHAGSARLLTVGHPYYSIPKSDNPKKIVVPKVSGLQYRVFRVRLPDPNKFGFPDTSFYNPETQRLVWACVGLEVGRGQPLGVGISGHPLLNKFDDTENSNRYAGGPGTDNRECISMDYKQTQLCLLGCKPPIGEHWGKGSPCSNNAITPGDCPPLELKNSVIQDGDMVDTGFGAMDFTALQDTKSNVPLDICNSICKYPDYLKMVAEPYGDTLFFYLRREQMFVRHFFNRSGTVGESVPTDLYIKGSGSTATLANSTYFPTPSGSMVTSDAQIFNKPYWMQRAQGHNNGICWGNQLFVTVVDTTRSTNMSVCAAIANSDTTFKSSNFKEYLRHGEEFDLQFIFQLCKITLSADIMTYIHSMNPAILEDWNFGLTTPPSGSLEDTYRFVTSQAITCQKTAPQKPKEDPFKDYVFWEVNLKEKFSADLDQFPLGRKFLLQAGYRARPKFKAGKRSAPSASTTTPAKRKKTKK
# T4: HPV11 VLP (human papillomavirus type 11, UniProt P04012 1-501)
# T4 sequence: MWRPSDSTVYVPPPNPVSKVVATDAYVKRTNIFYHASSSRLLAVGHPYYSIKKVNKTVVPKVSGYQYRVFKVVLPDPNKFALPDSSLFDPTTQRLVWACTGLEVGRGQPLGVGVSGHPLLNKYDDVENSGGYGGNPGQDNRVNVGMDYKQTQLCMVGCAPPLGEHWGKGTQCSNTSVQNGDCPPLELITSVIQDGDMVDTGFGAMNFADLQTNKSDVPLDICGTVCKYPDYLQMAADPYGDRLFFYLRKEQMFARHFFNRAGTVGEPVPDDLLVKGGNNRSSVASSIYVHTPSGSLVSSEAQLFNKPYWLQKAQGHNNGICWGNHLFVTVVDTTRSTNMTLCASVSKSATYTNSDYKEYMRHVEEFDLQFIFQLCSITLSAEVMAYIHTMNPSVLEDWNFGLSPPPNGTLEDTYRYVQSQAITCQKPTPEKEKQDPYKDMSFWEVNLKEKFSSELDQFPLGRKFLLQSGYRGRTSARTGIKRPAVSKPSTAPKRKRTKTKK
# T5: HPV6 VLP (human papillomavirus type 6, UniProt P69899 1-500)
# T5 sequence: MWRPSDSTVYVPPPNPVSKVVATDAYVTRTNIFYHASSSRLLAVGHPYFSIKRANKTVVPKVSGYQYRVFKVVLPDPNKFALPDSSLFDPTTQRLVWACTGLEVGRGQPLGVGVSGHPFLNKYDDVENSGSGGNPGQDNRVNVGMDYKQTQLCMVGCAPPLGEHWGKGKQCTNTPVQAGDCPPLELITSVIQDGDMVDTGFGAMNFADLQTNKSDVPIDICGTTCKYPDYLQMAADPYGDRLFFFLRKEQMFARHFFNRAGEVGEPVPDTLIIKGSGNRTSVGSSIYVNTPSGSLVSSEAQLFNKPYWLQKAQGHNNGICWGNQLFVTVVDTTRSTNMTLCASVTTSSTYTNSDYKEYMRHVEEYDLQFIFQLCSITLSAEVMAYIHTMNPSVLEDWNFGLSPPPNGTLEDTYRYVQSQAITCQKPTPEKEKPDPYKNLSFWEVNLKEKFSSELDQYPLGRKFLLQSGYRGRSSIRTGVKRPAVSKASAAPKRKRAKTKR
# T6: HPV45 VLP (human papillomavirus type 45, UniProt P36741 27-539)
# T6 sequence: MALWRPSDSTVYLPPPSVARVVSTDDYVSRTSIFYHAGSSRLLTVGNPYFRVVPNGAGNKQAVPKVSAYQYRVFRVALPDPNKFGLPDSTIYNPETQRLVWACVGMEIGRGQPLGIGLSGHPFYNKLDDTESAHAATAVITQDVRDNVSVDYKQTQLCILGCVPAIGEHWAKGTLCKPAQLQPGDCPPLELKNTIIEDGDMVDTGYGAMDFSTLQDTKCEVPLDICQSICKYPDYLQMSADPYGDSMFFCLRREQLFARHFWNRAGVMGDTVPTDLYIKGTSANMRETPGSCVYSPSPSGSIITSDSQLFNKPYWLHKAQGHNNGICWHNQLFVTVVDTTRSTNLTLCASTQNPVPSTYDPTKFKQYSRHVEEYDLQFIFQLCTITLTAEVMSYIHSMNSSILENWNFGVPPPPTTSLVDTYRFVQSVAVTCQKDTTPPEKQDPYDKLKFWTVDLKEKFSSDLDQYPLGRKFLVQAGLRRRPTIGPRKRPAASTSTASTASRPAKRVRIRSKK
# Columns and labels:
# [1] = target: T1, HPV-18 L1 VLP; test: indirect ELISA on coated VLP
# [2] = target: T2, HPV-16 L1 VLP; test: indirect ELISA on coated VLP
# [3] = target: T3, HPV31 VLP; test: SPR (BIACORE 3000)
# [4] = target: T4, HPV11 VLP; test: SPR (BIACORE 3000)
# [5] = target: T5, HPV6 VLP; test: SPR (BIACORE 3000)
# [6] = target: T6, HPV45 VLP; test: SPR (BIACORE 3000)
binder,measurement,setting,value
"单克隆抗体2F7 (杂交瘤细胞株2F7, CGMCC No.11295) (antibody, V domains shown, also called 克隆2F7) VH: VQLQQSGPGLVQPSQSLSITCTVSGFSLTSYGVHWVRQSPGKGLEWLGVIWSGGSTDYNAAFISRLSISKDNSKSQVFFKMNSLQANDTAIYYCARRDGNSRYAMDYWGQGTTVTVSS VL: DIQLTQSPSSMSASLGDRITITCQATQDIVKNLNWYQQKPGKPPSFLIYYATELAEGVPSRFSGSGSGSDYSLTISNLESEDFADYYCLQFYEFPLTFGAGTKLEI",binding result,[1],no binding (tested: 0.3μg/ml)
same,binding result,[2],no binding (tested: 0.3μg/ml)
same,binding result,[3],no binding (tested: 20nmol/L)
same,binding result,[4],no binding (tested: 20nmol/L)
same,binding result,[5],no binding (tested: 20nmol/L)
same,binding result,[6],no binding (tested: 20nmol/L)
